{"source": "the supplement of paper PMC9112550", "about": "“Optimization of the antimicrobial peptide Bac7 by deep mutational scanning” (BMC Biology, 2022);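 also: peptides expressed intracellularly from a pBAD plasmid library in pooled LB shake-flask culture, induced with 0.3% L-arabinose, DNA abundance read by NGS, three biological replicates, DESeq2 with apeglm shrinkage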", "data": [{"test_system": "Escherichia coli TOP10", "experiment": "shrunken log2 fold change of peptide-encoding DNA abundance (4.5 h post-induction vs induction); higher = less antimicrobial activity (less host growth inhibition)", "conditions": "time post-induction: 4.5 h; library: site-saturation at positions 5, 18, 19, 20", "values": [{"sequence": "RRIRIRPPRLPRPRPRPPSAPRP", "shrunken log2 fold change": 0.369}, {"sequence": "RRIRIRPPRLPRPRPRPPSLPRP", "shrunken log2 fold change": 0.18}, {"sequence": "RRIRIRPPRLPRPRPRPPVAPRP", "shrunken log2 fold change": 0.123}, {"sequence": "RRIRIRPPRLPRPRPRPPVPPRP", "shrunken log2 fold change": 0.233}, {"sequence": "RRIRIRPPRLPRPRPRPPYHPRP", "shrunken log2 fold change": -0.652}, {"sequence": "RRIRIRPPRLPRPRPRPQCRPRP", "shrunken log2 fold change": -0.0364}, {"sequence": "RRIRIRPPRLPRPRPRPQDFPRP", "shrunken log2 fold change": -0.1}, {"sequence": "RRIRIRPPRLPRPRPRPQDGPRP", "shrunken log2 fold change": 0.0409}, {"sequence": "RRIRIRPPRLPRPRPRPQDHPRP", "shrunken log2 fold change": -0.466}, {"sequence": "RRIRIRPPRLPRPRPRPQEFPRP", "shrunken log2 fold change": 0.0204}, {"sequence": "RRIRIRPPRLPRPRPRPQEHPRP", "shrunken log2 fold change": -0.0111}, {"sequence": "RRIRIRPPRLPRPRPRPQEKPRP", "shrunken log2 fold change": 0.0553}, {"sequence": "RRIRIRPPRLPRPRPRPQENPRP", "shrunken log2 fold change": -0.494}, {"sequence": "RRIRIRPPRLPRPRPRPQFDPRP", "shrunken log2 fold change": -0.505}, {"sequence": "RRIRIRPPRLPRPRPRPQFQPRP", "shrunken log2 fold change": -0.166}, {"sequence": "RRIRIRPPRLPRPRPRPQGFPRP", "shrunken log2 fold change": -0.129}, {"sequence": "RRIRIRPPRLPRPRPRPQHKPRP", "shrunken log2 fold change": -0.621}, {"sequence": "RRIRIRPPRLPRPRPRPQIAPRP", "shrunken log2 fold change": -0.0185}, {"sequence": "RRIRIRPPRLPRPRPRPQKNPRP", "shrunken log2 fold change": -0.355}, {"sequence": "RRIRIRPPRLPRPRPRPQKTPRP", "shrunken log2 fold change": -0.168}, {"sequence": "RRIRIRPPRLPRPRPRPQKVPRP", "shrunken log2 fold change": -0.102}, {"sequence": "RRIRIRPPRLPRPRPRPQMHPRP", "shrunken log2 fold change": -0.494}, {"sequence": "RRIRIRPPRLPRPRPRPQNCPRP", "shrunken log2 fold change": -0.0145}, {"sequence": "RRIRIRPPRLPRPRPRPQPYPRP", "shrunken log2 fold change": -0.84}, {"sequence": "RRIRIRPPRLPRPRPRPQRDPRP", "shrunken log2 fold change": 0.0634}, {"sequence": "RRIRIRPPRLPRPRPRPQRVPRP", "shrunken log2 fold change": -0.406}, {"sequence": "RRIRIRPPRLPRPRPRPQSYPRP", "shrunken log2 fold change": -0.603}, {"sequence": "RRIRIRPPRLPRPRPRPQTSPRP", "shrunken log2 fold change": -0.404}, {"sequence": "RRIRIRPPRLPRPRPRPQTVPRP", "shrunken log2 fold change": -0.271}, {"sequence": "RRIRIRPPRLPRPRPRPRAGPRP", "shrunken log2 fold change": 1.6}, {"sequence": "RRIRIRPPRLPRPRPRPRAPPRP", "shrunken log2 fold change": 0.347}, {"sequence": "RRIRIRPPRLPRPRPRPRAWPRP", "shrunken log2 fold change": 0.187}, {"sequence": "RRIRIRPPRLPRPRPRPRDGPRP", "shrunken log2 fold change": 0.575}, {"sequence": "RRIRIRPPRLPRPRPRPREKPRP", "shrunken log2 fold change": 0.111}, {"sequence": "RRIRIRPPRLPRPRPRPRETPRP", "shrunken log2 fold change": 0.0956}, {"sequence": "RRIRIRPPRLPRPRPRPRFEPRP", "shrunken log2 fold change": 0.131}, {"sequence": "RRIRIRPPRLPRPRPRPRFNPRP", "shrunken log2 fold change": -0.173}, {"sequence": "RRIRIRPPRLPRPRPRPRFTPRP", "shrunken log2 fold change": -0.043}, {"sequence": "RRIRIRPPRLPRPRPRPRGQPRP", "shrunken log2 fold change": 0.413}, {"sequence": "RRIRIRPPRLPRPRPRPRHSPRP", "shrunken log2 fold change": -0.646}, {"sequence": "RRIRIRPPRLPRPRPRPRHTPRP", "shrunken log2 fold change": -0.34}, {"sequence": "RRIRIRPPRLPRPRPRPRIFPRP", "shrunken log2 fold change": -1.13}, {"sequence": "RRIRIRPPRLPRPRPRPRPDPRP", "shrunken log2 fold change": 0.0926}, {"sequence": "RRIRIRPPRLPRPRPRPRPHPRP", "shrunken log2 fold change": 1.98}, {"sequence": "RRIRIRPPRLPRPRPRPRPMPRP", "shrunken log2 fold change": 0.129}, {"sequence": "RRIRIRPPRLPRPRPRPRQHPRP", "shrunken log2 fold change": -0.199}, {"sequence": "RRIRIRPPRLPRPRPRPRQMPRP", "shrunken log2 fold change": 0.0961}, {"sequence": "RRIRIRPPRLPRPRPRPRREPRP", "shrunken log2 fold change": 0.123}, {"sequence": "RRIRIRPPRLPRPRPRPRSWPRP", "shrunken log2 fold change": 0.394}, {"sequence": "RRIRIRPPRLPRPRPRPRTAPRP", "shrunken log2 fold change": 0.436}, {"sequence": "RRIRIRPPRLPRPRPRPRTRPRP", "shrunken log2 fold change": 0.0709}, {"sequence": "RRIRIRPPRLPRPRPRPRTYPRP", "shrunken log2 fold change": -0.726}, {"sequence": "RRIRIRPPRLPRPRPRPRVGPRP", "shrunken log2 fold change": 0.334}, {"sequence": "RRIRIRPPRLPRPRPRPRVRPRP", "shrunken log2 fold change": 0.112}, {"sequence": "RRIRIRPPRLPRPRPRPRVSPRP", "shrunken log2 fold change": 0.0983}, {"sequence": "RRIRIRPPRLPRPRPRPRVTPRP", "shrunken log2 fold change": -0.0426}, {"sequence": "RRIRIRPPRLPRPRPRPRWAPRP", "shrunken log2 fold change": 0.0908}, {"sequence": "RRIRIRPPRLPRPRPRPRWTPRP", "shrunken log2 fold change": 0.0809}, {"sequence": "RRIRIRPPRLPRPRPRPRYAPRP", "shrunken log2 fold change": -0.14}, {"sequence": "RRIRIRPPRLPRPRPRPSALPRP", "shrunken log2 fold change": -0.832}, {"sequence": "RRIRIRPPRLPRPRPRPSANPRP", "shrunken log2 fold change": -0.15}, {"sequence": "RRIRIRPPRLPRPRPRPSARPRP", "shrunken log2 fold change": -0.067}, {"sequence": "RRIRIRPPRLPRPRPRPSCFPRP", "shrunken log2 fold change": -0.625}, {"sequence": "RRIRIRPPRLPRPRPRPSCGPRP", "shrunken log2 fold change": -0.174}, {"sequence": "RRIRIRPPRLPRPRPRPSCNPRP", "shrunken log2 fold change": -0.576}, {"sequence": "RRIRIRPPRLPRPRPRPSDFPRP", "shrunken log2 fold change": -0.611}, {"sequence": "RRIRIRPPRLPRPRPRPSDPPRP", "shrunken log2 fold change": -0.136}, {"sequence": "RRIRIRPPRLPRPRPRPSDSPRP", "shrunken log2 fold change": -0.0385}, {"sequence": "RRIRIRPPRLPRPRPRPSEDPRP", "shrunken log2 fold change": -0.212}, {"sequence": "RRIRIRPPRLPRPRPRPSENPRP", "shrunken log2 fold change": -0.356}, {"sequence": "RRIRIRPPRLPRPRPRPSEPPRP", "shrunken log2 fold change": -0.192}, {"sequence": "RRIRIRPPRLPRPRPRPSICPRP", "shrunken log2 fold change": -0.814}, {"sequence": "RRIRIRPPRLPRPRPRPSIVPRP", "shrunken log2 fold change": -0.477}, {"sequence": "RRIRIRPPRLPRPRPRPSKDPRP", "shrunken log2 fold change": -1.02}, {"sequence": "RRIRIRPPRLPRPRPRPSKLPRP", "shrunken log2 fold change": -1.04}, {"sequence": "RRIRIRPPRLPRPRPRPSLQPRP", "shrunken log2 fold change": -0.331}, {"sequence": "RRIRIRPPRLPRPRPRPSMDPRP", "shrunken log2 fold change": -0.353}, {"sequence": "RRIRIRPPRLPRPRPRPSNCPRP", "shrunken log2 fold change": -0.24}, {"sequence": "RRIRIRPPRLPRPRPRPSQRPRP", "shrunken log2 fold change": -0.466}, {"sequence": "RRIRIRPPRLPRPRPRPSQTPRP", "shrunken log2 fold change": -0.0359}, {"sequence": "RRIRIRPPRLPRPRPRPSRRPRP", "shrunken log2 fold change": 0.35}, {"sequence": "RRIRIRPPRLPRPRPRPSSEPRP", "shrunken log2 fold change": -0.299}, {"sequence": "RRIRIRPPRLPRPRPRPSTDPRP", "shrunken log2 fold change": -0.247}, {"sequence": "RRIRIRPPRLPRPRPRPSVLPRP", "shrunken log2 fold change": -0.189}, {"sequence": "RRIRIRPPRLPRPRPRPSVMPRP", "shrunken log2 fold change": -0.286}, {"sequence": "RRIRIRPPRLPRPRPRPSWGPRP", "shrunken log2 fold change": -0.0874}, {"sequence": "RRIRIRPPRLPRPRPRPTEVPRP", "shrunken log2 fold change": 0.232}, {"sequence": "RRIRIRPPRLPRPRPRPTFFPRP", "shrunken log2 fold change": -0.292}, {"sequence": "RRIRIRPPRLPRPRPRPTGLPRP", "shrunken log2 fold change": 0.375}, {"sequence": "RRIRIRPPRLPRPRPRPTGMPRP", "shrunken log2 fold change": -0.161}, {"sequence": "RRIRIRPPRLPRPRPRPTGRPRP", "shrunken log2 fold change": -0.0536}, {"sequence": "RRIRIRPPRLPRPRPRPTGTPRP", "shrunken log2 fold change": -0.109}, {"sequence": "RRIRIRPPRLPRPRPRPTIYPRP", "shrunken log2 fold change": -0.865}, {"sequence": "RRIRIRPPRLPRPRPRPTKCPRP", "shrunken log2 fold change": -0.696}, {"sequence": "RRIRIRPPRLPRPRPRPTLPPRP", "shrunken log2 fold change": 0.0197}, {"sequence": "RRIRIRPPRLPRPRPRPTMKPRP", "shrunken log2 fold change": -0.309}, {"sequence": "RRIRIRPPRLPRPRPRPTMSPRP", "shrunken log2 fold change": -0.124}, {"sequence": "RRIRIRPPRLPRPRPRPTMVPRP", "shrunken log2 fold change": -0.719}, {"sequence": "RRIRIRPPRLPRPRPRPTNGPRP", "shrunken log2 fold change": -0.166}, {"sequence": "RRIRIRPPRLPRPRPRPTNNPRP", "shrunken log2 fold change": -0.629}, {"sequence": "RRIRIRPPRLPRPRPRPTNTPRP", "shrunken log2 fold change": -0.45}, {"sequence": "RRIRIRPPRLPRPRPRPTNYPRP", "shrunken log2 fold change": -0.745}, {"sequence": "RRIRIRPPRLPRPRPRPTPAPRP", "shrunken log2 fold change": 0.198}, {"sequence": "RRIRIRPPRLPRPRPRPTPVPRP", "shrunken log2 fold change": 0.234}, {"sequence": "RRIRIRPPRLPRPRPRPTQPPRP", "shrunken log2 fold change": -0.0427}, {"sequence": "RRIRIRPPRLPRPRPRPTSEPRP", "shrunken log2 fold change": 0.00551}, {"sequence": "RRIRIRPPRLPRPRPRPTSHPRP", "shrunken log2 fold change": -0.19}, {"sequence": "RRIRIRPPRLPRPRPRPTTKPRP", "shrunken log2 fold change": -0.664}, {"sequence": "RRIRIRPPRLPRPRPRPTTRPRP", "shrunken log2 fold change": -0.0487}]}]}
